# Laboratory results taken from paper PMC4458174 (DNA repair, 2015).
# Residue numbers refer to the chain shown, from its start. Names and notes keep the numbering of the source.
# T1: mouse Myh (mMyh), His-tagged (mouse, UniProt Q99P21 1-515)
# T1 sequence (looked up): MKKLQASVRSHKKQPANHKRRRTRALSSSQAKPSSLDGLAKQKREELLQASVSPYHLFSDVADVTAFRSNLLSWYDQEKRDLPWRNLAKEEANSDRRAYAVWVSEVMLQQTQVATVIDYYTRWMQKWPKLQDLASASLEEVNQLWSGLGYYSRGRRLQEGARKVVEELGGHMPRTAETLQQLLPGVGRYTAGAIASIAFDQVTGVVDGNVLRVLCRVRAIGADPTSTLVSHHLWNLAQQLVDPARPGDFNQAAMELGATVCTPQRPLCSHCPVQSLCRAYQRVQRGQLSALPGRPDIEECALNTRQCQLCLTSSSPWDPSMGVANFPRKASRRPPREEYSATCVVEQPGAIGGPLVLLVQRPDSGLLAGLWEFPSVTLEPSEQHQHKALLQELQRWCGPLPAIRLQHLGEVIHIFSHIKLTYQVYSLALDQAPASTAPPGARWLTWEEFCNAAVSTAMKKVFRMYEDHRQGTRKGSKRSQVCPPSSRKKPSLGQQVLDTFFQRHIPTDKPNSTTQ
# B1: GST-tagged hHus1 (wild type) (natural protein, human, UniProt O60921 1-280, looked up)
# chain: MKFRAKIVDGACLNHFTRISNMIAKLAKTCTLRISPDKLNFILCDKLANGGVSMWCELEQENFFNEFQMEGVSAENNEIYLELTSENLSRALKTAQNARALKIKLTNKHFPCLTVSVELLSMSSSSRIVTHDIPIKVIPRKLWKDLQEPVVPDPDVSIYLPVLKTMKSVVEKMKNISNHLVIEANLDGELNLKIETELVCVTTHFKDLGNPPLASESTHEDRNVEHMAEVHIDIRKLLQFLAGQQVNPTKALCNIVNNKMVHFDLLHEDVSLQYFIPALS
# B2: GST-hHus1N (residues 1-146) (domain or fragment, human, UniProt O60921 1-146, looked up)
# chain: MKFRAKIVDGACLNHFTRISNMIAKLAKTCTLRISPDKLNFILCDKLANGGVSMWCELEQENFFNEFQMEGVSAENNEIYLELTSENLSRALKTAQNARALKIKLTNKHFPCLTVSVELLSMSSSSRIVTHDIPIKVIPRKLWKDL
# B3: GST-hHus1C (residues 147-280) (domain or fragment, human, UniProt O60921 147-280, looked up)
# chain: QEPVVPDPDVSIYLPVLKTMKSVVEKMKNISNHLVIEANLDGELNLKIETELVCVTTHFKDLGNPPLASESTHEDRNVEHMAEVHIDIRKLLQFLAGQQVNPTKALCNIVNNKMVHFDLLHEDVSLQYFIPALS
# B4: GST-hHus1N(+) (residues 1-155) (domain or fragment, human, UniProt O60921 1-155, looked up)
# chain: MKFRAKIVDGACLNHFTRISNMIAKLAKTCTLRISPDKLNFILCDKLANGGVSMWCELEQENFFNEFQMEGVSAENNEIYLELTSENLSRALKTAQNARALKIKLTNKHFPCLTVSVELLSMSSSSRIVTHDIPIKVIPRKLWKDLQEPVVPDPD
# B5: GST-hHus1N(-) (residues 1-133) (domain or fragment, human, UniProt O60921 1-133, looked up)
# chain: MKFRAKIVDGACLNHFTRISNMIAKLAKTCTLRISPDKLNFILCDKLANGGVSMWCELEQENFFNEFQMEGVSAENNEIYLELTSENLSRALKTAQNARALKIKLTNKHFPCLTVSVELLSMSSSSRIVTHDI
# B6: GST-hHus1 K136A (natural protein, human, UniProt O60921 1-280, looked up)
# chain: B1 chain with K136A
# B7: GST-hHus1 V137A (natural protein, human, UniProt O60921 1-280, looked up)
# chain: B1 chain with V137A
# Molecular target: T1, mouse Myh (mMyh), His-tagged
# Experiment: pull-down
row,Binder,binding result
1,B1,binds
2,B2,binds
3,B3,binds
4,B4,binds
5,B5,binds
6,B6,binds
7,B7,binds
